Measured values taken from patent publication US6528487B1, “Peptide inhibitors of inflammation mediated by selectins” (Centocor, Inc., priority 1991, dated 2003).
No end group written: not given here. *: point of attachment. Fmoc = O=C(OCC1c2ccccc2-c2ccccc21)*

Biological target: T1, GMP-140 (Homo sapiens, UniProt P16109)
T1 construct: from tissue; host or cells: human platelets (outdated platelet packs from a blood bank)
T1 sequence (P16109 42-830): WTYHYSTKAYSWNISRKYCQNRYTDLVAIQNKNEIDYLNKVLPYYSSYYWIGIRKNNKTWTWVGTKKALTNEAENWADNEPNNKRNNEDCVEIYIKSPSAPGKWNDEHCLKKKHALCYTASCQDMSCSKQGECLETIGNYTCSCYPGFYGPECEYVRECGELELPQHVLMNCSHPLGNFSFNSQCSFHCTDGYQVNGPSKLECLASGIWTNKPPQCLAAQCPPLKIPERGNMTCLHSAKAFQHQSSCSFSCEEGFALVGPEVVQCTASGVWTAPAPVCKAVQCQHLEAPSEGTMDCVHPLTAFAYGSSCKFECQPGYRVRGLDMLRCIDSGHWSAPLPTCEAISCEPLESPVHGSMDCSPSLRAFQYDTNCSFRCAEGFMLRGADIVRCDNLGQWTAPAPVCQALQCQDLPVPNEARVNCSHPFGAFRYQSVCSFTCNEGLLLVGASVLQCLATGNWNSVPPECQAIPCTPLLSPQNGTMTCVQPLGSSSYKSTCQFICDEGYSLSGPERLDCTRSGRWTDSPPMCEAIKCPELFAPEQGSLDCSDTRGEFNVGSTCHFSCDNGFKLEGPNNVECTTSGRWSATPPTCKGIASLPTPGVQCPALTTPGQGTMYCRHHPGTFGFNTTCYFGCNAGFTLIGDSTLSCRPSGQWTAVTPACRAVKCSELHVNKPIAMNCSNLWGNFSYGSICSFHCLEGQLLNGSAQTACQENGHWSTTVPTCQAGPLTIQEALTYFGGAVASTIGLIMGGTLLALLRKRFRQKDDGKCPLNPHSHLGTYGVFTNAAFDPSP
Experiment: Inhibition of neutrophil binding to GMP-140 coated wells
Assay type: cell-based
Conditions: human neutrophils, immobilized GMP-140; for inhibition at 100 µM / inhibition at 500 µM / inhibition at 1000 µM: read-out: Percent inhibition of neutrophil binding to GMP-140
Excerpt: Peptides can be screened for their ability to inhibit adhesion to cells, for example, neutrophil adhesion to purified GMP-140 immobilized on plastic wells, using the assay described by Geng, et al., Nature 343, 757-760 (1990).
Human neutrophils are isolated from heparinized whole blood by density gradient centrifugation on Mono-Poly resolving media, Flow laboratories. Neutrophil suspensions are greater than 98% pure and greater than 95% viable by trypan blue exclusion. For adhesion assays, neutrophils are suspended at a concentration of 2×10^6 cells/mL in Hanks' balanced salt solution containing 1.26 mM Ca^2+ and 0.81 mM Mg^2+ (HBSS, Gibco) with 5 mg/mL human serum albumin (HBSS/HSA). Adhesion assays are conducted in triplicate in 96-well microtiter plates, Corning, incubated at 4° C. overnight with 50 microliters of various protein solutions.
GMP-140 is isolated from human platelet lysates by immunoaffinity chromatography on antibody S12-Sepharose™ and ion-exchange chromatography on a Mono-Q™ column (FLPC, Pharmacia Fine Chemicals, as follows.
GMP-140 is plated at 5 micrograms/mL and the control proteins: human serum albumin (Alb), platelet glycoprotein Iib/IIIha (Iib), von Willebrand factor (vWF), fibrinogen (FIB), thrombomodulin™, gelatin (GEL) or human serum (HS), are added at 50 micrograms/mL. All wells are blocked for 2 h at 22° C. with 300 microliters HBSS containing 10 mg/mL HSA, then ashed three times with HBSS containing 0.1% Tween-20 and once with HBSS. Cells (2×10^5 per well are added to the wells and incubated at 22° C. for 20 min. The wells are then filled with HGSS/HSA, sealed with acetate tape (Dynatech), and centrifuged inverted at 150 g for 5 min. After discarding nonadherent cells and supemates, the contents of each well are solubilized with 200 microliters of 0.5% hexadecyltrimethylammonium bromide, Sigma, in 50 mM potassium phosphate, pH 6.0, and assayed for myeloperoxidase activity, Ley, et al., Blood 73, 1324-1330 (1989). The number of cells bound is derived from a standard curve of myeloperoxidase activity versus numbers of cells. Under all assay conditions, the cells release less than 5% of total myeloperoxidase and lactate dehydrogenase. Inhibition is read as a lower percent adhesion, so that a value of 5% means that 95% of the specific adhesion was inhibited.
Binding of various peptides to GMP-140 coated wells, as described above, were compared.
Binding of the peptides at various concentrations, ranging from 0.05 to 1 mM were compared.
A 5 μg/mL solution of GMP-140 in HBSS (buffer) is prepared. 50 μL is pipetted per well with the exception of three wells (A10 to A12) and the plate is stored overnight at 0° C. to 4° C. The liquids are removed by aspiration and 300 μL of 5 mg/mL human serum albumin (HSA)/HBSS is placed in the wells coated with GMP-140 plus the three non-coated wells to be used as control wells. The plate is allowed to incubate at room temperature for two hours. The HSA/HBSS solution is removed and the wells washed three times with 300 μL/well of HBSS. The third 300 μL wash of HBSS is left in each well and the plate is kept at room temperature until it is used.
Eight to ten mL of fresh human blood collected in heparinized tubes is carefully layered over 5 mL of the Mono-Poly Resolving Medium in 15 mL polypropylene centrifuge tubes. The tubes are centrifuged for 30 minutes at room temperature and 1400 to 1600 rpm. The tubes are rotated 180° and centrifuged for another 30 minutes under the same conditions. The top plasma layer and first cellular layer of leukocytes are drawn off. The second cellular layer of neutrophils is harvested (usually 2 to 3 mL per tube) and is placed in a clean 15 mL centrifuge tube. This is then underlayered with 1.5 mL of fresh resolving medium and spun at 2000 rpm for 15 minutes at room temperature. This is done to further purify the neutrophils from residual red blood cells. […]

| Substance | Percent inhibition of neutrophil binding to GMP-140 (peptide concentration 0.1 mM) | Percent inhibition of neutrophil binding to GMP-140 (peptide concentration 0.5 mM) | Percent inhibition of neutrophil binding to GMP-140 (peptide concentration 1.0 mM) | inhibition at 100 µM (peptide concentration 0.1 mM) | inhibition at 500 µM (peptide concentration 0.5 mM) | inhibition at 1000 µM (peptide concentration 1.0 mM) |
| --- | --- | --- | --- | --- | --- | --- |
| Arg-Glu-Asn-Asn-Lys-Thr-Trp-Thr-Trp-Val-NH2 (RENNKTWTWV-NH2) | 34% | 94% | 96% |  |  |  |
| Tyr-Lys-Asn-Asn-Lys-Thr-Trp-Thr-Trp-Val-NH2 (YKNNKTWTWV-NH2) | 9% | 98% | 104% |  |  |  |
| Arg-Lys-Val-Asn-Asn-Val-Trp-NH2 (RKVNNVW-NH2) |  |  | 17% |  |  |  |
| Ac-Arg-Lys-Asn-Asn-Lys-Thr-Trp-Thr-Trp-Val-NH2 (Ac-RKNNKTWTWV-NH2) | 35% | 50% |  |  |  |  |
| Cys-Arg-Lys-Asn-Asn-Lys-Thr-Trp-Thr-Trp-Val-NH2 (CRKNNKTWTWV-NH2) | 87% |  | 105% |  |  |  |
| RKNNKTWTWV (Synthetic inhibitory peptide) [Arginyl-lysyl-asparaginyl-asparaginyl-lysyl-threonyl-tryptophyl-hreonyl-tryptophyl-valine] | 14% |  | 35% |  |  |  |
| Arg-Lys-Asn-Asn-Lys-Thr-Trp-Thr-Trp-Glu-NH2 (RKNNKTWTWE-NH2) | 17% | 20% |  |  |  |  |
| RKNNGTWTWV-NH2 [RKNNGTWTWV-NH2, Arginyl-lysyl-asparaginyl-asparaginyl-glycyl-threonyl-tryptophyl-threonyl-tryptophyl-valine-amide] |  |  |  | 46% | 99% | 99% |
| RKNNKTWTWVGTKKALTNEC-NH2 [Arginyl-lysyl-asparaginyl-asparaginyl-lysyl-threonyl-tryptophyl-threonyl-tryptophyl-valyl-glycyl-threonyl-lysyl-lysyl-alanyl-leucyl-threonyl-asparaginyl-glutamyl-cysteine-amide] |  |  |  | 9% |  | 47% |
| RKNNKTWTWV-NH2 [RKNNKTWTWV-NH2, Arginyl-lysyl-asparaginyl-asparaginyl-lysyl-threonyl-tryptophyl-threonyl-tryptophyl-valine-amide] | 14% | 30% |  | 13% | 20% |  |
| RKVNNVWVWV [RKVNNVWVWV, Arginyl-lysyl-valyl-asparaginyl-asparaginyl-valyl-tryptophyl-valyl-tryptophyl-valine] |  |  |  | 82% | 98% |  |
| RKVNNVWVWV-NH2 [RKVNNVWVWV-NH2, Arginyl-lysyl-valyl-asparaginyl-asparaginyl-valyl-tryptophyl-valyl-tryptophyl-valine-amide] |  |  |  | 94% | 102% |  |
| FMOC-Asn-Asn-Lys-Thr-Trp-NH2 (Fmoc-NNKTW-NH2; SMILES C[C@@H](O)[C@H](NC(=O)[C@H](CCCCN)NC(=O)[C@H](CC(N)=O)NC(=O)[C@H](CC(N)=O)NC(=O)OCC1c2ccccc2-c2ccccc21)C(=O)N[C@@H](Cc1c[nH]c2ccccc12)C(N)=O) | 85% | 100% | 99% |  |  |  |
| RKNNKTWT-NH2 | 26% | 23% | 34% |  |  |  |
| Arg-Lys-Asn-Asn-Lys-Thr-Trp-NH2 (RKNNKTW-NH2) | 31% | 53% | 99% |  |  |  |
| KWKWNRTNVT-NH2 [reference compound] | 0% | 0% | 0% |  |  |  |
